Reference: patent US20260193324A1

Molecular target: human GLP-1 receptor (GLP-1R) (human) (UniProt P43220)
Chain of UniProt P43220 (P43220 24-463): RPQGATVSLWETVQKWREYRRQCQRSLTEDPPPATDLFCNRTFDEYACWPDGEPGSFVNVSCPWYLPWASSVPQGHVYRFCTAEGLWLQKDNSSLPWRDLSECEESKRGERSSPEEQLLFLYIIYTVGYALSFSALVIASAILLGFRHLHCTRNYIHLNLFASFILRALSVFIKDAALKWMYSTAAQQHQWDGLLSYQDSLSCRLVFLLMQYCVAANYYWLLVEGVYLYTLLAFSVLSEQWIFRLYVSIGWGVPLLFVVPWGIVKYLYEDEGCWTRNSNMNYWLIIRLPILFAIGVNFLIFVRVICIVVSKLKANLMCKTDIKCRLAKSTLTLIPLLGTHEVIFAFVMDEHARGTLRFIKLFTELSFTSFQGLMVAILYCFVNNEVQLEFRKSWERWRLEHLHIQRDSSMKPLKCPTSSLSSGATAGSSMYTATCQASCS

EC50 (read off the curve), 4 hr stimulation: 1 nM
Substance: GLP-1(7-37) peptide (from UniProt P01275 21-180)
